By EC50 (read off the curve) is commonly meant the concentration that produces a half-maximal response.

Here are results for five molecules from patent US20260234258A1 (REPERTOIRE IMMUNE MEDICINES, published 2026).

For assay [1], the target named is T1, human CD8 (on CD8 T cells of human PBMC) (human, UniProt P01732 22-235).
T1 construct: The assay used native CD8 on human PBMC; also called hCD8; NP_001139345.1
Put plainly: flow cytometry on human PBMC, gated cell types; IL2 loading detected with anti-IL2; MFI. The protocol:
(§1) Anti-human CD8-human IL2 molecules were evaluated for their ability to specifically bind and load IL2 on CD8 T cells. Briefly, […] human PBMC were co-cultured with indicated CD8-IL2 (human FC receptor) molecules from one of the concentrations ranging from 0.05 pM to 0.4 nM. Following one hour incubation with molecules, PBMC were washed twice with RPMI complete medium and washed once with PBS. The washed cells were stained with anti-IL2 (MQ1-17H12), anti-human kappa (MHK-49) and lineage surface markers CD3(UCHT1), CD4(SK3) and NK(HCD56) for 20 minutes, after which the cells were washed and analyzed using a flow cytometer. The binding affinity was quantified and represented as mean fluorescence intensity (MFI).
A general note: A flow cytometer gives signals particle by particle.

In assay [2] the target is T1, human CD8 (on CD8 T cells of human PBMC). Briefly: cell-based or functional assay.
Assay [3] shares this target. Briefly: flow cytometry on human PBMC, CD8 T cells; bound molecule detected with anti-human kappa; MFI. As for the experimental part: as §1
The target is the same in assay [4]. Briefly: cell-based or functional assay. This is another data set of the same source.
Assay [5] has as its target T2, mouse CD8 (on CD8 T cells of mouse splenocytes) (mouse, UniProt P01731 28-247).
T2 construct: whole, on cells; also called mCD8
Briefly: flow cytometry on mouse splenocytes, CD8 T cells; IL2 loading detected with anti-IL2; median fluorescence intensity. As for the experimental part: (§2) Anti-mouse CD8-human IL2 molecules were evaluated for their ability to specifically bind and load IL2 on CD8 T cells. Briefly, 1×10⁵ mouse splenocytes were incubated with indicated CD8-IL2 (human FC receptor) molecules from one of the concentrations ranging from 0.05 pM to 500 nM. Anti-mouse CD8 antibody was used as control. Following one hour incubation with molecules, splenocytes were washed twice with RPMI complete medium and once with PBS. The washed splenocytes were stained with anti-TL2 (MQ1-17H12), anti-human kappa (MHK-49) and lineage surface makers CD4(RM4-4), NK1.1(PK136) and CD19(6D5) for 20 minutes, after which the cells were washed and analyzed using flow cytometer. Mean fluorescence intensity data was analyzed using four parameter nonlinear regression method to calculated binding affinity in GraphPad prism.

The target in assay [6] is T2, mouse CD8 (on CD8 T cells of mouse …). Briefly: flow cytometry on mouse splenocytes, gated cell types; IL2 loading detected with anti-IL2; median fluorescence intensity. The protocol: as §2
Assay [7] has the same target. Put plainly: flow cytometry on mouse splenocytes, CD8 T cells; bound molecule detected with anti-human kappa; median fluorescence intensity. The protocol: as §2
For assay [8] the target is unchanged. Briefly: cell-based or functional assay.

T1 sequence (P01732 22-235 limits assumed): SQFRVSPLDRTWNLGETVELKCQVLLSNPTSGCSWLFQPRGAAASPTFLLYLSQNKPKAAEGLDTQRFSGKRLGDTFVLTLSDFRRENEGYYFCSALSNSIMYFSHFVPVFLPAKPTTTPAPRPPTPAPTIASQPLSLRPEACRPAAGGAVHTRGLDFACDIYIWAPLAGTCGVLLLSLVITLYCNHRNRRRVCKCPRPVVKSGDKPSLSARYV
T2 sequence (P01731 28-247): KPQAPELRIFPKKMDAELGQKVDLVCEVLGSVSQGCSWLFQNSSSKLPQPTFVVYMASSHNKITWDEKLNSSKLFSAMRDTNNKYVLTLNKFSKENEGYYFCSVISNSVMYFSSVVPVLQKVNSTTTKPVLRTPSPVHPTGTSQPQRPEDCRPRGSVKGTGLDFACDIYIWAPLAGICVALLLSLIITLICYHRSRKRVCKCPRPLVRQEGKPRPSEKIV

B1: hCD8 IgG IL2 1x (HC) (VH6/VK3) (antibody)
heavy 1: not shown
heavy 2: EVQLVQSGAEVKKPGATVKISCKASGYTFTDFTMHWVQQAPGKGLEWIGLVNPNNGGNIYAEKFQGRVTLTVDTSTSTAYMELSSLRSEDTAVYYCGRVPLYTSHGMDYWGQGTLVTVSSASTKGPSVFPLAPSSKSTSGGTAALGCLVKDYFPEPVTVSWNSGALTSGVHTFPAVLQSSGLYSLSSVVTVPSSSLGTQTYICNVNHKPSNTKVDKKVEPKSCDKTHTCPPCPAPEAAGGPSVFLFPPKPKDTLMISRTPEVTCVVVDVSHEDPEVKFNWYVDGVEVHNAKTKPREEQYASTYRVVSVLTVLHQDWLNGKEYKCKVSNKALGAPIEKTISKAKGQPREPQVYTLPPSRDELTKNQVSLSCAVKGFYPSDIAVEWESNGQPENNYKTTPPVLDSDGSFFLVSKLTVDKSRWQQGNVFSCSVMHEALHNHYTQKSLSLSPGK
light: EIVLTQSPATLSLSPGERATISCRASESVDSYDINSMHWYQQKPGQAPRLLIYRASHLQSGIPARFSGSGSRTDFTLTISSLEPEDFATYYCQQSNEDPLTFGQGTKLEIKRTVAAPSVFIFPPSDEQLKSGTASVVCLLNNFYPREAKVQWKVDNALQSGNSQESVTEQDSKDSTYSLSSTLTLSKADYEKHKVYACEVTHQGLSSPVTKSFNRGEC
notes: Humanized 02A01 (VH6/VK3) anti-human CD8 IgG, knob-in-hole, one human IL-2 on the C-terminus of the knob heavy chain; also called hCD8 IgG IL2 1×(HC)
Take B1: the half-maximal effective concentration (EC50 (read off the curve)) in assay [1] and in assay [3] was about 0.03 nM throughout. The “EC50 pSTAT5 Activation, CD8+ T cells” value in assay [2] amounted to 0.448 pM. In addition, in assay [4], the “EC50 of Proliferation (percentage Ki67), CD8+ T cells” value was 0.0689 nM.

B2: mCD8 Fab IL2 (LC) (YTS105) (Fab)
heavy: EVQLKESGPGLVQPSQTLSLTCTVSGFSLTSNSVHWVRQPPGKGLEWMGGIWGDGDTDYNSALKSRLSISRDTSKNQVFLKMNSLQTDDTAIYFCTPLIGSWYFDFWGPGTMVTASSASTKGPSVFPLAPSSKSTSGGTAALGCLVKDYFPEPVTVSWNSGALTSGVHTFPAVLQSSGLYSLSSVVTVPSSSLGTQTYICNVNHKPSNTKVDKKVEPKSC
light: not shown
notes: Anti-mouse CD8 Fab (clone YTS105) with human IL-2 fused to the C-terminus of the light chain
Turning to B2, the results for the “EC50 (read off the curve)” value in assay [5], in assay [6] and in assay [7] were about 0.6 nM, about 0.3 nM and about 0.5 nM, respectively. Besides, the “Percentage of CD8 T Cell expansion at 32 pm” value (from here on “Percentage … at 32 pm”) in assay [8] worked out at 56.4%. Moreover, the “Percentage of CD8 T Cell expansion at 160 pm” value (from here on “Percentage … at 160 pm”) in assay [8] is 59.7%.

B3: mCD8 IgG IL2 (HC) (YTS105) (antibody)
heavy: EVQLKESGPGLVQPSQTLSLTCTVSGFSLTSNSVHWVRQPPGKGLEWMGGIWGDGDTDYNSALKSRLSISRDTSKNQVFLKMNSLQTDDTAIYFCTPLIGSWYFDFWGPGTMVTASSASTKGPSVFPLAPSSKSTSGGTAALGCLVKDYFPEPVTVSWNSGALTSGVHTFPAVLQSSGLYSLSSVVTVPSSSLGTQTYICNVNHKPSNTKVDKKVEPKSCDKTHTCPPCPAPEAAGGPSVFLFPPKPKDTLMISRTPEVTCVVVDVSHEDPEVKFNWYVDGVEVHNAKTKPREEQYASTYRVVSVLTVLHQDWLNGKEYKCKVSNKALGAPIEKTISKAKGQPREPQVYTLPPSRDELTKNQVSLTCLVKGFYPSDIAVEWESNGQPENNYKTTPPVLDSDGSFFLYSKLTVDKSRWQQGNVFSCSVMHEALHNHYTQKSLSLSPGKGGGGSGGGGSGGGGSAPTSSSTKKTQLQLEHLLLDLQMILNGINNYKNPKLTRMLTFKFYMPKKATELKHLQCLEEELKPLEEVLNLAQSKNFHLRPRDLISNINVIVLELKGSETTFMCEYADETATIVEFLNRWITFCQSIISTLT
light: DIVMTQSPSSLAVSAGERVTLNCKASQNVRNNIAWYQQKPGQSPKLLIYYASYRYTGVPDRFTGDGFGTDFTLAINSVQADDAAFYYCQRIYNSPYTFGAGTKLELIRTVAAPSVFIFPPSDEQLKSGTASVVCLLNNFYPREAKVQWKVDNALQSGNSQESVTEQDSKDSTYSLSSTLTLSKADYEKHKVYACEVTHQGLSSPVTKSFNRGEC
notes: Anti-mouse CD8 IgG (clone YTS105) with human IL-2 on the C-terminus of each heavy chain
With B3, the concentration giving a half-maximal response (EC50 (read off the curve)) in assay [5] was about 0.05 nM; in assay [6] it was about 0.05 nM; in assay [7], about 0.04 nM. Also, the “Percentage … at 32 pm” value in assay [8] came out at 46.5%. Also, the “Percentage … at 160 pm” value in assay [8] was found to be 63.2%.

B4: mCD8IgG (anti-mouse CD8 antibody control, clone YTS105) (antibody, not shown: a dimerising Fc or GST)
heavy: EVQLKESGPGLVQPSQTLSLTCTVSGFSLTSNSVHWVRQPPGKGLEWMGGIWGDGDTDYNSALKSRLSISRDTSKNQVFLKMNSLQTDDTAIYFCTPLIGSWYFDFWGPGTMVTASSASTKGPSVFPLAPSSKSTSGGTAALGCLVKDYFPEPVTVSWNSGALTSGVHTFPAVLQSSGLYSLSSVVTVPSSSLGTQTYICNVNHKPSNTKVDKKVEPKSC
light: DIVMTQSPSSLAVSAGERVTLNCKASQNVRNNIAWYQQKPGQSPKLLIYYASYRYTGVPDRFTGDGFGTDFTLAINSVQADDAAFYYCQRIYNSPYTFGAGTKLELIRTVAAPSVFIFPPSDEQLKSGTASVVCLLNNFYPREAKVQWKVDNALQSGNSQESVTEQDSKDSTYSLSSTLTLSKADYEKHKVYACEVTHQGLSSPVTKSFNRGEC
notes: Control without IL-2
Regarding B4, the “EC50 (read off the curve)” value in assay [7] is about 0.04 nM.

B5: mCD8 Fab Fc IL2 (LC) (YTS105) (antibody, human IgG1, kappa, L234A L235A, N297A)
heavy: EVQLKESGPGLVQPSQTLSLTCTVSGFSLTSNSVHWVRQPPGKGLEWMGGIWGDGDTDYNSALKSRLSISRDTSKNQVFLKMNSLQTDDTAIYFCTPLIGSWYFDFWGPGTMVTASSASTKGPSVFPLAPSSKSTSGGTAALGCLVKDYFPEPVTVSWNSGALTSGVHTFPAVLQSSGLYSLSSVVTVPSSSLGTQTYICNVNHKPSNTKVDKKVEPKSCDKTHTCPPCPAPEAAGGPSVFLFPPKPKDTLMISRTPEVTCVVVDVSHEDPEVKFNWYVDGVEVHNAKTKPREEQYASTYRVVSVLTVLHQDWLNGKEYKCKVSNKALGAPIEKTISKAKGQPREPQVYTLPPSRDELTKNQVSLWCLVKGFYPSDIAVEWESNGQPENNYKTTPPVLDSDGSFFLYSKLTVDKSRWQQGNVFSCSVMHEALHNHYTQKSLSLSPGK
chain: DKTHTCPPCPAPEAAGGPSVFLFPPKPKDTLMISRTPEVTCVVVDVSHEDPEVKFNWYVDGVEVHNAKTKPREEQYASTYRVVSVLTVLHQDWLNGKEYKCKVSNKALGAPIEKTISKAKGQPREPQVYTLPPSRDELTKNQVSLSCAVKGFYPSDIAVEWESNGQPENNYKTTPPVLDSDGSFFLVSKLTVDKSRWQQGNVFSCSVMHEALHNHYTQKSLSLSPGK
light: not shown
notes: One-armed Fab-Fc (clone YTS105) with human IL-2 on the C-terminus of the light chain; also called mCD8 Fc-IL2(LC); CD8Fc-IL2
Take B5: the concentration giving a half-maximal response (EC50 (read off the curve)) in assay [5] was about 0.8 nM; in assay [6], about 0.4 nM; in assay [7], about 0.7 nM. In addition, the “Percentage … at 32 pm” value in assay [8] came to 56.1%. Moreover, in assay [8], the “Percentage … at 160 pm” value came to 60.6%.
